# Patent publication US20050171014A1 (GOVERNMENT OF THE UNITED STATES OF AMERICA REPRESENTED BY …, published 2005)
# Non-standard residues stand in square brackets, D forms with d. HTI‑286 = hemiasterlin derivative, cytotoxic agent; Cha = N[C@@H](CC1CCCCC1)C(=O)O; Nle = CCCC[C@H](N)C(=O)O
# T1: gastrin receptor
# T1 sequence (P32239 whole entry, species assumed, looked up): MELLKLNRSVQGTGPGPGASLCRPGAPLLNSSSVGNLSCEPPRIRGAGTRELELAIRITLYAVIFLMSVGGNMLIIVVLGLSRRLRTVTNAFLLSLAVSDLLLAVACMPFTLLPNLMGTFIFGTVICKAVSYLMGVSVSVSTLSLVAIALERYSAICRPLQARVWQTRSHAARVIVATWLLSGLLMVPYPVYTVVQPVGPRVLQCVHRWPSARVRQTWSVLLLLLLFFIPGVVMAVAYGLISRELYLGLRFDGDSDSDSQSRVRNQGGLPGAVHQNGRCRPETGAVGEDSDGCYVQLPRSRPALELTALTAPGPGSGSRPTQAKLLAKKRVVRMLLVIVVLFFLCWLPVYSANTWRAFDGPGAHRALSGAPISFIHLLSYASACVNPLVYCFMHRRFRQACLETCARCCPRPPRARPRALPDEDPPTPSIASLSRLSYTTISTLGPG
# How the values were obtained:
# gastrin receptor = molecular target: T1, gastrin receptor; assay: cell-based or functional assay
# [1] = molecular target: low-affinity gastrin receptor of nontransfected cells; assay: cell-based or functional assay
binder,measurement,setting,value
{HTI‑286}-[Cha]LALAEEEAYGW[Nle]DF-NH2 [HTI-286-Cha-Leu-Ala-Leu-Ala-EEEAYGW-Nle-DF-NH2],"IC50, growth inhibition of gastrin receptor-expressing 3T3 cells (MTT or sulforhodamine assay)",gastrin receptor,10 nM
same,"IC50, growth inhibition of nontransfected cells (MTT or sulforhodamine assay)",[1],300 nM
